The values below are quoted from earlier work in paper PMC12799613.

What is called Kd is the concentration at which binding is half-saturated.

One data set addresses TRPC5 (Homo sapiens) (UniProt Q9UL62).
The target in data set [1] is TRPM3 peptide (Mus musculus) (UniProt J9SQF3).
Data set [2] addresses GIRK2 (Kir3.2), first Gβγ binding (Mus musculus) (UniProt P48542).
In data set [3] the target is GIRK2 (Kir3.2), fourth Gβγ binding (Mus musculus) (UniProt P48542).
Chain of GIRK2 (Kir3.2), fourth Gβγ binding (Mus musculus) (P48542 whole entry): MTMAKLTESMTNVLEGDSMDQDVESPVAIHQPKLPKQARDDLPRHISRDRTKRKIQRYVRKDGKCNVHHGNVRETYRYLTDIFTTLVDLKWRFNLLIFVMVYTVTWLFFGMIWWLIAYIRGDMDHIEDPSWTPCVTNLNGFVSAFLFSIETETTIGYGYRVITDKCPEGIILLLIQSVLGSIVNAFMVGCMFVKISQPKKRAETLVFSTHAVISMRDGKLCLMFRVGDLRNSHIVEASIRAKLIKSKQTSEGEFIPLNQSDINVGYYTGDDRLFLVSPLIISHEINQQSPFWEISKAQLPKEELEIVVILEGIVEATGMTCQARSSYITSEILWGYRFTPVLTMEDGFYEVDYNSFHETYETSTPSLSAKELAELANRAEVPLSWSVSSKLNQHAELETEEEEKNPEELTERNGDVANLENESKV

Chain of Gβ1γ2 (P62873 2-340): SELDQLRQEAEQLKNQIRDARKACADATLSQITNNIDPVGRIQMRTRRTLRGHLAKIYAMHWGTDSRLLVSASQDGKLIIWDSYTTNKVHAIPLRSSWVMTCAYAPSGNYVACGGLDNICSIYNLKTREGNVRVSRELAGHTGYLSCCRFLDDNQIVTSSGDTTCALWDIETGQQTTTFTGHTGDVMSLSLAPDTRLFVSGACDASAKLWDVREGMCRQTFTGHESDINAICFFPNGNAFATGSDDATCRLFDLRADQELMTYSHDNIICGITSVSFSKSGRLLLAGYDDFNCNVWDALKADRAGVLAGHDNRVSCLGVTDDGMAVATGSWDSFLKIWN
Chain of Gβ1γ2 (P59768 2-68, further chain): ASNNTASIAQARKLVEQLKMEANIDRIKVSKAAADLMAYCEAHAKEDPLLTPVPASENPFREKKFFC
Chain of GIRK2 (Kir3.2), first Gβγ binding (Mus musculus) (P48542 whole entry): as the sequence (P48542 whole entry) above
Chain of Gαi3 (P08754 2-354): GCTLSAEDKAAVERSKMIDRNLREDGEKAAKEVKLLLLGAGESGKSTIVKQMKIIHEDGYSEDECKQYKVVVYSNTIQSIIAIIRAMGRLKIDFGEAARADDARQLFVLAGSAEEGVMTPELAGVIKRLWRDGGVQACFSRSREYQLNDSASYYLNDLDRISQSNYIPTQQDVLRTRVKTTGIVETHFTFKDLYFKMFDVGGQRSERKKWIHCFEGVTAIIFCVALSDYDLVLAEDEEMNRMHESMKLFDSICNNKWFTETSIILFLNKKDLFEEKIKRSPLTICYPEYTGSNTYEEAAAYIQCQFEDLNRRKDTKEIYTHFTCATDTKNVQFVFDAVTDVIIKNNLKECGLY
Chain of TRPM3 peptide (Mus musculus) (J9SQF3 whole entry): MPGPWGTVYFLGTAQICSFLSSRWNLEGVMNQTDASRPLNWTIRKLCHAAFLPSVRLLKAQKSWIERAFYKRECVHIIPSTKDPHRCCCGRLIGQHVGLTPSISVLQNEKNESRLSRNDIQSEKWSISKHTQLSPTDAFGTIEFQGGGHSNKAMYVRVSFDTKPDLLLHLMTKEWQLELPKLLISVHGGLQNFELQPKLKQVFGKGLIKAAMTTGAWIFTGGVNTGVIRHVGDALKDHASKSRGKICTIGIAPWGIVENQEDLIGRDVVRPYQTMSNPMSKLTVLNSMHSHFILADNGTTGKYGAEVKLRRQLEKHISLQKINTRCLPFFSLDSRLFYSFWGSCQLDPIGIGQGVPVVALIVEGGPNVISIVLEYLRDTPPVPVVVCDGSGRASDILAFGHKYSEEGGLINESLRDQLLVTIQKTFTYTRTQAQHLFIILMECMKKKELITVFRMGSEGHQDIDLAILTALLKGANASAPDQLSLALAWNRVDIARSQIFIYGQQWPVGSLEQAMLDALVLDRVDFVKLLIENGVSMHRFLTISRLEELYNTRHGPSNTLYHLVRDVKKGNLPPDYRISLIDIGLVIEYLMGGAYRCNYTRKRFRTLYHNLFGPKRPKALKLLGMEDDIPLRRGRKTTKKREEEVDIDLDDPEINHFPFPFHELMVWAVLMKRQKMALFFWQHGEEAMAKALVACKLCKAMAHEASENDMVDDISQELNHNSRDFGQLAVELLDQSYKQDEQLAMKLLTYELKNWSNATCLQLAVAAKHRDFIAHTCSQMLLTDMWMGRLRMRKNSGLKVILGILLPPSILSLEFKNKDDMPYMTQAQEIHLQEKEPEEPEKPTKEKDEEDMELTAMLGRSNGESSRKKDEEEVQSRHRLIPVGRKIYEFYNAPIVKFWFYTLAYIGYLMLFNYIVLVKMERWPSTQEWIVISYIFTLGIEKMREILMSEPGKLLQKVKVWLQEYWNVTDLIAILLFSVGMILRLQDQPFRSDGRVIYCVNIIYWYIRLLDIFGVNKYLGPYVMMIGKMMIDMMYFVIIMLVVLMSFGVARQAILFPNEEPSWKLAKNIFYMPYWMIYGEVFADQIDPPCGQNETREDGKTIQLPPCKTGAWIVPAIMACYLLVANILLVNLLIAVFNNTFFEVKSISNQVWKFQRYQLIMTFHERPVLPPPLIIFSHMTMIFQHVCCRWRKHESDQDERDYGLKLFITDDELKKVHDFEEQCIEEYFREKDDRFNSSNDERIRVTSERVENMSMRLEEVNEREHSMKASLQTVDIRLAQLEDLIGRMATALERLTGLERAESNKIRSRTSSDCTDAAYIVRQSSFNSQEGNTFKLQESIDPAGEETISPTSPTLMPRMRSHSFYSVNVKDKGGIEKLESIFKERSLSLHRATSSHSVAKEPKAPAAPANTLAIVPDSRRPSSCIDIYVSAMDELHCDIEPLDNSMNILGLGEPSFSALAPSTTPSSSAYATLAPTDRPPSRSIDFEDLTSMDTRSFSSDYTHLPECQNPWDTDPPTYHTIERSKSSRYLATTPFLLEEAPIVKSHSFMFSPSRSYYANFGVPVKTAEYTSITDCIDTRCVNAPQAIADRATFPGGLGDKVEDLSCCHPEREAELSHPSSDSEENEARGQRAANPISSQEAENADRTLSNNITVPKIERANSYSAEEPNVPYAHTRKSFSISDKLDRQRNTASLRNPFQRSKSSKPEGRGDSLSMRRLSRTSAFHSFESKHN
Chain of TRPC5 (Homo sapiens) (Q9UL62 whole entry): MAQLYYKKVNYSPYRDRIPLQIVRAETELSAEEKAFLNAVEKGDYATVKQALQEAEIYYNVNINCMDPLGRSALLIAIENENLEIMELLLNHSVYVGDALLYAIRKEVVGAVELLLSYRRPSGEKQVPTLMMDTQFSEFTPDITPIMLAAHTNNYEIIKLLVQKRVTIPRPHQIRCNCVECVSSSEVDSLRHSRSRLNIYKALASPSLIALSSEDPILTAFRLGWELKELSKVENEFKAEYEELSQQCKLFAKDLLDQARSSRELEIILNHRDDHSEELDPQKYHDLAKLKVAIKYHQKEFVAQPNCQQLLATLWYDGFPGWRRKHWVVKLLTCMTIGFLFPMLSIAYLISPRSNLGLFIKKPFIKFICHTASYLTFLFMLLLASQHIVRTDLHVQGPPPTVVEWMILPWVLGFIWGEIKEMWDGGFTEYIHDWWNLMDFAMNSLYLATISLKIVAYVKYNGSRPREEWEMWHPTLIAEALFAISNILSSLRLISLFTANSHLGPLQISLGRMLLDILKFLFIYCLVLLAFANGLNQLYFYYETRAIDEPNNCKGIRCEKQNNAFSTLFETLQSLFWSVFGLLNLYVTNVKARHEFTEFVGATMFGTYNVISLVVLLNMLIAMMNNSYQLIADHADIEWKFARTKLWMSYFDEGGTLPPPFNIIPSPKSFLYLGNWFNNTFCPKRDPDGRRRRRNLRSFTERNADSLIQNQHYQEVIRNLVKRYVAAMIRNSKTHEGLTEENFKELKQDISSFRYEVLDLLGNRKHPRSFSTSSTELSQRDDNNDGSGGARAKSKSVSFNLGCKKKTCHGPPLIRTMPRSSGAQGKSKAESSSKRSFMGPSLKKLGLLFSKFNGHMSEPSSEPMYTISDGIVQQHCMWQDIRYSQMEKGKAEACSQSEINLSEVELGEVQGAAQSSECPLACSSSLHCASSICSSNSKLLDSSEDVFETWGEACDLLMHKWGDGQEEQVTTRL

Turning to Gαi3 (from UniProt P08754), in the data set with TRPC5 (Homo sapiens), the dissociation constant Kd was 910 nM.

Gβ1γ2 (from UniProt P62873): the results for the Kd in data set [1], in data set [2] and in data set [3] were 56 µM, 1.9 mM and 50 µM, respectively.
